Source: patent publication US20240343803A1 (SHANDONG SIMCERE BIOPHARMACEUTICAL, published 2024)
Each block holds one binder with its values, some of them ahead of it.

Legend:
[1] = target: T1, full-length human TIGIT on CHO-K1 cells (CHO-K1 human TIGIT) (human, UniProt Q495A1 22-244); test: FACS, low expression strain
T1 construct: NCBI XP_024309156.1; entry includes the signal peptide; also called high expression strain 1D2; medium expression strain 2D10
T1 sequence: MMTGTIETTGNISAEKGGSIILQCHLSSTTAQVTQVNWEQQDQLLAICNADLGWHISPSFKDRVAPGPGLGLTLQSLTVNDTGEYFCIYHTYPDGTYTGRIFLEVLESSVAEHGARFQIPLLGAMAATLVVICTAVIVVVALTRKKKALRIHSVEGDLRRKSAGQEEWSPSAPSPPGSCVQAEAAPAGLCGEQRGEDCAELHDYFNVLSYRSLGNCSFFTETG
Protocol: The collected cells were washed once with PBS (Hyclone, CAT #SH30256), resuspended to 2×10⁵/50 μL with 1% BSA-PBS. The antibodies were diluted to 80 nM with 1% BSA-PBS (diluted by 3-fold serial dilution for 12 concentration points). The 50 μL cells were then mixed with 50 μL diluted antibodies, and then incubated at 4° C. for 60 minutes. […] After washing twice with PBS, the cell samples were resuspended with 1% BSA-PBS, 100 μL/well and then analyzed by flow cytometry (BD, Canto II). […] [0298] (c) The effect of anti-TIGIT chimeric antibodies blocking the interaction between Bio-CD155-His and CHO-K1 human TIGIT high expression cell strains detected by FACS

[2] = target: T2, human PVRIG-his (AcroBiosystems, Cat NO. PVG-H52H4) (human, UniProt Q6DKI7 41-171, limits assumed); test: competition ELISA on coated human PVRIG-his; blocked ligand human PVRL2-mFc
T2 construct: treated as the same protein; also called human PVRIG-His protein; Human PVRIG-His, Acro C227P1-9ARF1-T4
T2 sequence (looked up): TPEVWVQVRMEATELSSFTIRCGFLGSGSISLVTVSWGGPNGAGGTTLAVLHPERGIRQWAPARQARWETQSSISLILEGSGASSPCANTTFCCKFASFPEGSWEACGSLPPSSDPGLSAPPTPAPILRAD
Protocol: The ELISA plate was pre-coated with 100 μL/well of 0.5 μg/mL human PVRIG-his protein (AcroBiosystems, Cat NO. PVG-H52H4). The tested anti-PVRIG antibodies were diluted from the highest concentration of 16 nM (two-fold concentration). The diluted antibodies were mixed with 18 ng/ml human PVRL2-mFc (AcroBiosystems, Cat NO. CD2-H5257) in equal volume, added into the plate (100 μL/well), and incubated with shaking at room temperature for 2.0 hours. […] A HRP substrate, TMB (Thermo, Cat NO. 34029) was added into wells after washing the plate again for color development. After adding a termination solution to terminate the reaction, the absorbance value was read by a microplate reader (MD i3×). An inhibiting curve was drawn with concentration of antibodies as the abscissa and the corresponding OD value as the ordinate. The IC50 value was calculated by using a Four Parameter Logistic Fit (GraphPadPrism9). The smaller the IC50 value, the stronger the ability of the antibodies inhibits the binding between PVRIG and PVRL2. The positive and negative controls are the same as in Example 8.
The methods refer to Example 11. The inhibiting activity of the humanized antibodies was normalized to the corresponding parental antibodies. If the percentage value is higher than 100%, the inhibiting effect of humanized antibodies is better than that of parental antibodies.

[3] = target: T3, cynomolgus monkey PVRIG (Novoprotein, Cat NO. C09B) (cynomolgus monkey, UniProt A0A2K5WVV8 41-171); test: ELISA, coated cynomolgus monkey PVRIG
T3 construct: bought reagent; also called cynomolgus monkey PVRIG recombinant protein
T3 sequence: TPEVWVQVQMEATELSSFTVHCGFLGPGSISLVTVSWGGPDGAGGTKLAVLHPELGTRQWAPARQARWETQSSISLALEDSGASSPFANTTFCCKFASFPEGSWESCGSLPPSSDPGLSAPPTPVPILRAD

EC50 [1]: 0.495 nM
B1: RG6058-hIgG1 (antibody, V domains shown)
VH: EVQLQQSGPGLVKPSQTLSLTCAISGDSVSSNSAAWNWIRQSPSRGLEWLGKTYYRFKWYSDYAVSVKGRITINPDTSKNQFSLQLNSVTPEDTAVFYCTRESTTYDLLAGPFDYWGQGTLVTVSS
VL: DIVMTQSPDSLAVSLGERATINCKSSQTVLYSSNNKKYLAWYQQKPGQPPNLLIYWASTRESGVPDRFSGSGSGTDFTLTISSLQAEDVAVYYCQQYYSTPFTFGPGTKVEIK
notes: human IgG1 format by its name; also called Roche RG6058; control antibody RG6058

IC50 (read off the curve) [2]: ~0.7 nM
B2: PVRIG-A105 (VHH)
VHH: EVQLVESGGGLVQAGGSLRLSCAASGRTFDRHTMTWFRQAPGKEREFVATASRIPGDTYYSHSVKGRFTISRDNAKNTVYLQLNNLKPEDTAVYYCAATSAYCSEVDCYEKGSWYDNWGQGIQVTVSS
notes: tested as VHH-hinge-CH2-CH3 (human IgG1-Fc); not shown: human IgG1 hinge-CH2-CH3

EC50 (read off the curve) [3]: ~0.06 nM
B3: SRF813-hIgG1 (antibody, V domains shown)
VH: QVQLVQSGAEVKKPGSSVKVSCKASGGTFSSAAISWVRQAPGQGLEWMGNIIPIVGIANYAQKFQGRVTITADESTSTAYMELSSLRSEDTAVYYCARDTGRGYTRHFWFDPWGQGTLVTVSS
VL: DIQMTQSPSSLSASVGDRVTITCRASQSISSYLNWYQQKPGKAPKLLIYAASSLQSGVPSRFSGSGSGTDFTLTISSLQPEDFATYYCQQSDILYTFGGGTKVEIK
notes: human IgG1 format by its name
